Measurements reported in patent US20170016905A1 (VAR2 PHARMACEUTICALS, published 2017).

B1: DBL2X-DBL4ε (3D7, Baculo) (other)
chain: LTNCYKCDKCKSEQSKKNNKNWIWKKSSGKEGGLQKEYANTIGLPPRTQSLCLVVCLDEKGKKTQELKNIRTNSELLKEWIIAAFHEGKNLKPSHEKKNDDNGKKLCKALEYSFADYGDLIKGTSIWDNEYTKDLELNLQKIFGKLFRKYIKKNNTAEQDTSYSSLDELRESWWNTNKKYIWLAMKHGAGMNSTTCCGDGSVTGSGSSCDDIPTIDLIPQYLRFLQEWVEHFCKQRQEKVKPVIENCKSCKESGGTCNGECKTECKNKCEVYKKFIEDCKGGDGTAGSSWVKRWDQIYKRYSKYIEDAKRNRKAGTKNCGPSSTTNAAENKCVQSDIDSFFKHLIDIGLTTPSSYLSIVLDDNICGADKAPWTTYTTYTTTEKCNKETDKSKLQQCNTAVVVNVPSPLGNTPHGYKYACQCKIPTNEETCDDRKEYMNQWSCGSARTMKRGYKNDNYELCKYNGVDVKPTTVRSNSSKLDDKDVTFFNLFEQWNKEIQYQIEQYMTNTKISCNNEKNVLSRVSDEAAQPKFSDNERDRNSITHEDKNCKEKCKCYSLWIEKINDQWDKQKDNYNKFQRKQIYDANKGSQNKKVVSLSNFLFFSCWEEYIQKYFNGDWSKIKNIGSDTFEFLIKKCGNDSGDGETIFSEKLNNAEKKCKENESTNNKMKSSETSCDCSEPIYIRGCQPKIYDGKIFPGKGGEKQWICKDTIIHGDTNGACIPPRTQNLCVGELWDKRYGGRSNIKNDTKESLKQKIKNAIQKETELLYEYHDKGTAIISRNPMKGQKEKEEKNNDSNGLPKGFCHAVQRSFIDYKNMILGTSVNIYEYIGKLQEDIKKIIEKGTTKQNGKTVGSGAENVNAWWKGIEGEMWDAVRCAITKINKKQKKNGTFSIDECGIFPPTGNDEDQSVSWFKEWSEQFCIERLQYEKNIRDACTNNGQGDKIQGDCKRKCEEYKKYISEKKQEWDKQKTKYENKYVGKSASDLLKENYPECISANFDFIFNDNIEYKTYYPYGDYSSICSCEQVKYYEYNNAEKKNNKSLCHEKGNDRTWSKKYIKKLENGRTLEGVYVPPRRQQLCLYELFPIIIKNKNDITNAKKELLETLQIVAEREAYYLWKQYHAHNDTTYLAHKKACCAIRGSFYDLEDIIKGNDLVHDEYTKYIDSKLNEIFDSSNKNDIETKRARTDWWENEAIAVPNITGANKSDPKTIRQLVWDAMQSGVRKAIDEEKEKKKPNENFPPCMGVQHIGIAKPQFIRWLEEWTNEFCEKYTKYFEDMKSNCNLRKGADDCDDNSNIECKKACANYTNWLNPKRIEWNGMSNYYNKIYRKSNKESEDGKDYSMIMEPTVIDYLNKRCNGEINGNYICCSCKNIGENSTSGTVNKKLQKKETQCEDNKGPLDLMNKVLNKMDPKYSEHKMKCTEVYLEHVEEQLKEIDNAIKDYKLYPLD
notes: not shown: V5 and His tag at the C-terminal (modified pAcGP67-A)
B2: ID1-DBL2Xb (3D7, Baculo) (other)
chain: LSFILNSSDANNPSEKIQKNNDEVCNCNESGIASVEQEQISDPSSNKTCITHSSIKANKKKVCKHVKLGVRENDKDLRVCVIEHTSLSGVENCCCQDFLRILQENCSDNKSGSSSNGSCNNKNQEACEKNLEKVLASLTNCYKCDKCKSEQSKKNNKNWIWKKSSGKEGGLQKEYANTIGLPPRTQSLCLVVCLDEKGKKTQELKNIRTNSELLKEWIIAAFHEGKNLKPSHEKKNDDNGKKLCKALEYSFADYGDLIKGTSIWDNEYTKDLELNLQKIFGKLFRKYIKKNNTAEQDTSYSSLDELRESWWNTNKKYIWLAMKHGAGMNSTTCCGDGSVTGSGSSCDDIPTIDLIPQYLRFLQEWVEHFCKQRQEKVKPVIENCKSCKESGGTCNGECKTECKNKCEVYKKFIEDCKGGDGTAGSSWVKRWDQIYKRYSKYIEDAKRNRKAGTKNCGPSSTTNAAENKCVQSDIDSFFKHLIDIGLTTPSSYLSIVLDDNICGADKAPWTTYTTYTTTEKCNKETDKSKLQQCNTAVVVNVPSPLGNTPHGYKY
notes: The start at 16 is derived by me from the forward primer (LSFILN); not shown: V5 and His tag at the C-terminal (modified pAcGP67-A)
B3: DBL1-ID2b (FCR3, Baculo) (other)
chain: HSDSGKYDPCEKKLPPYDDNDQWKCQQNSSDGSGKPENICVPPRRERLCTYNLENLKFDKIRDNNAFLADVLLTARNEGEKIVQNHPDTNSSNVCNALERSFADLADIIRGTDQWKGTNSNLEKNLKQMFAKIRENDKVLQDKYPKDQKYTKLREAWWNANRQKVWEVITCGARSNDLLIKRGWRTSGKSDRKKNFELCRKCGHYEKEVPTKLDYVPQFLRWLTEWIEDFYREKQNLIDDMERHREECTREDHKSKEGTSYCSTCKDKCKKYCECVKKWKTEWENQENKYKDLYEQNKNKTSQKNTSRYDDYVKDFFEKLEANYSSLENYIKGDPYFAEYATKLSFILNPSDANNPSGETANHNDEACNCNESGISSVGQAQTSGPSSNKTCITHSSIKTNKKKECKDVKLGVRENDKDLKICVIEDTSLSGVDNCCCQDLLGILQENCSDNKRGSSSNDSCDNKNQDECQKKLEKVFASLTNGYKCDKCKSGTSRSKKKWIWKKSSGNEEGLQEEYANTIGLPPRTQSLYLGNLPKLENVCEDVKDINFDTKEKFLAGCLIVSFHEGKNLKKRYPQNKNSGNKENLCKALEYSFADYGDLIKGTSIWDNEYTKDLELNLQNNFGKLFGKYIKKNNTAEQDTSYSSLDELRESWWNTNKKYIWTAMKHGAEMNITTCNADGSVTGSGSSCDDIPTIDLIPQYLRFLQEWVENFCEQRQAKVKDVITNCKSCKESGNKCKTECKTKCKDECEKYKKFIEACGTAGGGIGTAGSPWSKRWDQIYKRYSKHIEDAKRNRKAGTKNCGTSSTTNAAASTDENKCVQSDIDSFFKHLIDIGLTTPSSYLSNVLDDNICGADKAPWTTYTTYTTTEKCNKERDKSKSQSSDTLVVVNVPSPLGNTPYRYKYACQCKIPTNEETCDDRKEYMNQWSCGSARTMKRGYKNDNYELCKYNGVDVKPTTVRSNSSKLDGNDVTFFNLFEQWNKEIQYQIEQYMTNANISCIDEKEVLDSVSDEGTPKVRGGYEDGRNNNTDQGTNCKEKCKCYKLWIEKINDQWGKQKDNYNKFRSKQIYDANKGSQNKKVVSLSNFLFFSCWEEYIQKYFNGDWSKIKNIGSDTFEFLIKKCGNNSAHGEEIFNEKLKNAEKKCKENESTDTNINK
notes: Range derived by me from the FCR3 DBL1X forward primer (HSDSGK) and the FCR3 ID2b reverse primer (TDTNINK); also called DBL1X-ID2b; not shown: V5 and His tag at the C-terminal (modified pAcGP67-A)
B4: ID1-DBL3ε (3D7, Baculo) (other)
chain: LSFILNSSDANNPSEKIQKNNDEVCNCNESGIASVEQEQISDPSSNKTCITHSSIKANKKKVCKHVKLGVRENDKDLRVCVIEHTSLSGVENCCCQDFLRILQENCSDNKSGSSSNGSCNNKNQEACEKNLEKVLASLTNCYKCDKCKSEQSKKNNKNWIWKKSSGKEGGLQKEYANTIGLPPRTQSLCLVVCLDEKGKKTQELKNIRTNSELLKEWIIAAFHEGKNLKPSHEKKNDDNGKKLCKALEYSFADYGDLIKGTSIWDNEYTKDLELNLQKIFGKLFRKYIKKNNTAEQDTSYSSLDELRESWWNTNKKYIWLAMKHGAGMNSTTCCGDGSVTGSGSSCDDIPTIDLIPQYLRFLQEWVEHFCKQRQEKVKPVIENCKSCKESGGTCNGECKTECKNKCEVYKKFIEDCKGGDGTAGSSWVKRWDQIYKRYSKYIEDAKRNRKAGTKNCGPSSTTNAAENKCVQSDIDSFFKHLIDIGLTTPSSYLSIVLDDNICGADKAPWTTYTTYTTTEKCNKETDKSKLQQCNTAVVVNVPSPLGNTPHGYKYACQCKIPTNEETCDDRKEYMNQWSCGSARTMKRGYKNDNYELCKYNGVDVKPTTVRSNSSKLDDKDVTFFNLFEQWNKEIQYQIEQYMTNTKISCNNEKNVLSRVSDEAAQPKFSDNERDRNSITHEDKNCKEKCKCYSLWIEKINDQWDKQKDNYNKFQRKQIYDANKGSQNKKVVSLSNFLFFSCWEEYIQKYFNGDWSKIKNIGSDTFEFLIKKCGNDSGDGETIFSEKLNNAEKKCKENESTNNKMKSSETSCDCSEPIYIRGCQPKIYDGKIFPGKGGEKQWICKDTIIHGDTNGACIPPRTQNLCVGELWDKRYGGRSNIKNDTKESLKQKIKNAIQKETELLYEYHDKGTAIISRNPMKGQKEKEEKNNDSNGLPKGFCHAVQRSFIDYKNMILGTSVNIYEYIGKLQEDIKKIIEKGTTKQNGKTVGSGAENVNAWWKGIEGEMWDAVRCAITKINKKQKKNGTFSIDECGIFPPTGNDEDQSVSWFKEWSEQFCIERLQYEKNIRDACTNNGQGDKIQGDCKRKCEEYKKYISEKKQEWDKQKTKYENKYVGKSASDLLKENYPECISANFDFIFNDNIEYKTYYPYGDYSSICSCEQVKYYEYNNAE
notes: as for B1
B5: ID1-DBL4ε (3D7, Baculo) (other)
chain: LSFILNSSDANNPSEKIQKNNDEVCNCNESGIASVEQEQISDPSSNKTCITHSSIKANKKKVCKHVKLGVRENDKDLRVCVIEHTSLSGVENCCCQDFLRILQENCSDNKSGSSSNGSCNNKNQEACEKNLEKVLASLTNCYKCDKCKSEQSKKNNKNWIWKKSSGKEGGLQKEYANTIGLPPRTQSLCLVVCLDEKGKKTQELKNIRTNSELLKEWIIAAFHEGKNLKPSHEKKNDDNGKKLCKALEYSFADYGDLIKGTSIWDNEYTKDLELNLQKIFGKLFRKYIKKNNTAEQDTSYSSLDELRESWWNTNKKYIWLAMKHGAGMNSTTCCGDGSVTGSGSSCDDIPTIDLIPQYLRFLQEWVEHFCKQRQEKVKPVIENCKSCKESGGTCNGECKTECKNKCEVYKKFIEDCKGGDGTAGSSWVKRWDQIYKRYSKYIEDAKRNRKAGTKNCGPSSTTNAAENKCVQSDIDSFFKHLIDIGLTTPSSYLSIVLDDNICGADKAPWTTYTTYTTTEKCNKETDKSKLQQCNTAVVVNVPSPLGNTPHGYKYACQCKIPTNEETCDDRKEYMNQWSCGSARTMKRGYKNDNYELCKYNGVDVKPTTVRSNSSKLDDKDVTFFNLFEQWNKEIQYQIEQYMTNTKISCNNEKNVLSRVSDEAAQPKFSDNERDRNSITHEDKNCKEKCKCYSLWIEKINDQWDKQKDNYNKFQRKQIYDANKGSQNKKVVSLSNFLFFSCWEEYIQKYFNGDWSKIKNIGSDTFEFLIKKCGNDSGDGETIFSEKLNNAEKKCKENESTNNKMKSSETSCDCSEPIYIRGCQPKIYDGKIFPGKGGEKQWICKDTIIHGDTNGACIPPRTQNLCVGELWDKRYGGRSNIKNDTKESLKQKIKNAIQKETELLYEYHDKGTAIISRNPMKGQKEKEEKNNDSNGLPKGFCHAVQRSFIDYKNMILGTSVNIYEYIGKLQEDIKKIIEKGTTKQNGKTVGSGAENVNAWWKGIEGEMWDAVRCAITKINKKQKKNGTFSIDECGIFPPTGNDEDQSVSWFKEWSEQFCIERLQYEKNIRDACTNNGQGDKIQGDCKRKCEEYKKYISEKKQEWDKQKTKYENKYVGKSASDLLKENYPECISANFDFIFNDNIEYKTYYPYGDYSSICSCEQVKYYEYNNAEKKNNKSLCHEKGNDRTWSKKYIKKLENGRTLEGVYVPPRRQQLCLYELFPIIIKNKNDITNAKKELLETLQIVAEREAYYLWKQYHAHNDTTYLAHKKACCAIRGSFYDLEDIIKGNDLVHDEYTKYIDSKLNEIFDSSNKNDIETKRARTDWWENEAIAVPNITGANKSDPKTIRQLVWDAMQSGVRKAIDEEKEKKKPNENFPPCMGVQHIGIAKPQFIRWLEEWTNEFCEKYTKYFEDMKSNCNLRKGADDCDDNSNIECKKACANYTNWLNPKRIEWNGMSNYYNKIYRKSNKESEDGKDYSMIMEPTVIDYLNKRCNGEINGNYICCSCKNIGENSTSGTVNKKLQKKETQCEDNKGPLDLMNKVLNKMDPKYSEHKMKCTEVYLEHVEEQLKEIDNAIKDYKLYPLD
notes: as for B1

Each molecule was assayed against CSPG (bovine) (D8428, Sigma) (bovine) (UniProt P21793) (assay: quartz crystal microbalance (Attana A100), CSPG coated, 1:1 fit).
Chain of CSPG (bovine) (D8428, Sigma) (bovine) (P21793 31-360): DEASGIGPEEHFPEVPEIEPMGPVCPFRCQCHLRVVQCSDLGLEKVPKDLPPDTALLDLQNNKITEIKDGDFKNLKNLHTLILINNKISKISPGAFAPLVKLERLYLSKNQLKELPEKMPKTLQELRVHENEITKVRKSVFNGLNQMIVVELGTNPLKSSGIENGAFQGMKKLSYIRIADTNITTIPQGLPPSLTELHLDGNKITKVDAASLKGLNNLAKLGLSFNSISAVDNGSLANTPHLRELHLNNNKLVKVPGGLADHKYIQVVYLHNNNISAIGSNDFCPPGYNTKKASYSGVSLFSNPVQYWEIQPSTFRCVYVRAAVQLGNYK

Row | Molecule | Kd [nM]
1 | DBL2X-DBL4ε (FCR3, Baculo) | 2.4
2 | ID1-DBL3ε (FCR3, Baculo) | 0.3
3 | ID1-DBL4ε (FCR3, Baculo) | 8.6

These molecules were tested against T1, CSPG (bovine) (D8428, Sigma) (bovine, UniProt P21793 31-360, carries chondroitin sulfate A (CSA) glycosaminoglycan chain(s); the filing attributes the binding of VAR2CSA to this glycan) in the same assay as above.
T1 construct: also called chondroitin sulfate proteoglycan; CSA proteoglycan
T1 sequence (P21793 31-360): as above

Row | Molecule | Kd [nM]
4 | B1 | 1.2
5 | B2 | 21.8
6 | B3 | 1.5
7 | B4 | 8.5
8 | B5 | 9.4
